# Test results taken from patent publication US20230365662A1.
# Several values for one entry are separate records, joined by “and”; a condition that tells them apart may be missing. Equal values may be shown once.
# B1: KB001 parental mouse Fab VH variant N100P (Fab, V domains shown)
# VH: EVQLKQSGPGLVAPSQSLSITCTVSGFSLSIYSVHWVRQPPGKGLEWLGMIWGGGSSDYNSALKSRLSISKDNSKSQVFLKMNSLQTDDTAMYYCARNGPFYAMDYWGQGTSVTVSS
# VL: QIVLTQSPAIMSASLGERVTMTCTASSSVSSSFLHWYQQKPGSSPQLWIYSTSNLASGVPARFSGSGSGTSYSLTISSMEAEDAATYYCHQYHHSPYIYTFGGGTKLEIK
# B2: KB001 parental mouse Fab VH variant N100I (Fab, V domains shown)
# VH: EVQLKQSGPGLVAPSQSLSITCTVSGFSLSIYSVHWVRQPPGKGLEWLGMIWGGGSSDYNSALKSRLSISKDNSKSQVFLKMNSLQTDDTAMYYCARNGIFYAMDYWGQGTSVTVSS
# VL: QIVLTQSPAIMSASLGERVTMTCTASSSVSSSFLHWYQQKPGSSPQLWIYSTSNLASGVPARFSGSGSGTSYSLTISSMEAEDAATYYCHQYHHSPYIYTFGGGTKLEIK
# B3: KB001 parental mouse Fab VH variant N100S (Fab, V domains shown)
# VH: EVQLKQSGPGLVAPSQSLSITCTVSGFSLSIYSVHWVRQPPGKGLEWLGMIWGGGSSDYNSALKSRLSISKDNSKSQVFLKMNSLQTDDTAMYYCARNGSFYAMDYWGQGTSVTVSS
# VL: QIVLTQSPAIMSASLGERVTMTCTASSSVSSSFLHWYQQKPGSSPQLWIYSTSNLASGVPARFSGSGSGTSYSLTISSMEAEDAATYYCHQYHHSPYIYTFGGGTKLEIK
# B4: KB001 parental mouse Fab VH variant N100L (Fab, V domains shown)
# VH: EVQLKQSGPGLVAPSQSLSITCTVSGFSLSIYSVHWVRQPPGKGLEWLGMIWGGGSSDYNSALKSRLSISKDNSKSQVFLKMNSLQTDDTAMYYCARNGLFYAMDYWGQGTSVTVSS
# VL: QIVLTQSPAIMSASLGERVTMTCTASSSVSSSFLHWYQQKPGSSPQLWIYSTSNLASGVPARFSGSGSGTSYSLTISSMEAEDAATYYCHQYHHSPYIYTFGGGTKLEIK
# B5: KB001 parental mouse Fab VH variant N100A (Fab, V domains shown)
# VH: EVQLKQSGPGLVAPSQSLSITCTVSGFSLSIYSVHWVRQPPGKGLEWLGMIWGGGSSDYNSALKSRLSISKDNSKSQVFLKMNSLQTDDTAMYYCARNGAFYAMDYWGQGTSVTVSS
# VL: QIVLTQSPAIMSASLGERVTMTCTASSSVSSSFLHWYQQKPGSSPQLWIYSTSNLASGVPARFSGSGSGTSYSLTISSMEAEDAATYYCHQYHHSPYIYTFGGGTKLEIK
# B6: KB001 parental mouse Fab VH variant N100F (Fab, V domains shown)
# VH: EVQLKQSGPGLVAPSQSLSITCTVSGFSLSIYSVHWVRQPPGKGLEWLGMIWGGGSSDYNSALKSRLSISKDNSKSQVFLKMNSLQTDDTAMYYCARNGFFYAMDYWGQGTSVTVSS
# VL: QIVLTQSPAIMSASLGERVTMTCTASSSVSSSFLHWYQQKPGSSPQLWIYSTSNLASGVPARFSGSGSGTSYSLTISSMEAEDAATYYCHQYHHSPYIYTFGGGTKLEIK
# B7: KB001 parental mouse Fab VH variant N100C (Fab, V domains shown)
# VH: EVQLKQSGPGLVAPSQSLSITCTVSGFSLSIYSVHWVRQPPGKGLEWLGMIWGGGSSDYNSALKSRLSISKDNSKSQVFLKMNSLQTDDTAMYYCARNGCFYAMDYWGQGTSVTVSS
# VL: QIVLTQSPAIMSASLGERVTMTCTASSSVSSSFLHWYQQKPGSSPQLWIYSTSNLASGVPARFSGSGSGTSYSLTISSMEAEDAATYYCHQYHHSPYIYTFGGGTKLEIK
# B8: KB001 parental mouse Fab VH variant N100G (Fab, V domains shown)
# VH: EVQLKQSGPGLVAPSQSLSITCTVSGFSLSIYSVHWVRQPPGKGLEWLGMIWGGGSSDYNSALKSRLSISKDNSKSQVFLKMNSLQTDDTAMYYCARNGGFYAMDYWGQGTSVTVSS
# VL: QIVLTQSPAIMSASLGERVTMTCTASSSVSSSFLHWYQQKPGSSPQLWIYSTSNLASGVPARFSGSGSGTSYSLTISSMEAEDAATYYCHQYHHSPYIYTFGGGTKLEIK
# B9: KB001 parental mouse Fab VH variant N100E (Fab, V domains shown)
# VH: EVQLKQSGPGLVAPSQSLSITCTVSGFSLSIYSVHWVRQPPGKGLEWLGMIWGGGSSDYNSALKSRLSISKDNSKSQVFLKMNSLQTDDTAMYYCARNGEFYAMDYWGQGTSVTVSS
# VL: QIVLTQSPAIMSASLGERVTMTCTASSSVSSSFLHWYQQKPGSSPQLWIYSTSNLASGVPARFSGSGSGTSYSLTISSMEAEDAATYYCHQYHHSPYIYTFGGGTKLEIK
# B10: KB001 parental mouse Fab VH variant N100T (Fab, V domains shown)
# VH: EVQLKQSGPGLVAPSQSLSITCTVSGFSLSIYSVHWVRQPPGKGLEWLGMIWGGGSSDYNSALKSRLSISKDNSKSQVFLKMNSLQTDDTAMYYCARNGTFYAMDYWGQGTSVTVSS
# VL: QIVLTQSPAIMSASLGERVTMTCTASSSVSSSFLHWYQQKPGSSPQLWIYSTSNLASGVPARFSGSGSGTSYSLTISSMEAEDAATYYCHQYHHSPYIYTFGGGTKLEIK
# B11: KB001 parental mouse Fab VH variant N100K (Fab, V domains shown)
# VH: EVQLKQSGPGLVAPSQSLSITCTVSGFSLSIYSVHWVRQPPGKGLEWLGMIWGGGSSDYNSALKSRLSISKDNSKSQVFLKMNSLQTDDTAMYYCARNGKFYAMDYWGQGTSVTVSS
# VL: QIVLTQSPAIMSASLGERVTMTCTASSSVSSSFLHWYQQKPGSSPQLWIYSTSNLASGVPARFSGSGSGTSYSLTISSMEAEDAATYYCHQYHHSPYIYTFGGGTKLEIK
# B12: KB001 parental mouse Fab VH variant N100R (Fab, V domains shown)
# VH: EVQLKQSGPGLVAPSQSLSITCTVSGFSLSIYSVHWVRQPPGKGLEWLGMIWGGGSSDYNSALKSRLSISKDNSKSQVFLKMNSLQTDDTAMYYCARNGRFYAMDYWGQGTSVTVSS
# VL: QIVLTQSPAIMSASLGERVTMTCTASSSVSSSFLHWYQQKPGSSPQLWIYSTSNLASGVPARFSGSGSGTSYSLTISSMEAEDAATYYCHQYHHSPYIYTFGGGTKLEIK
# B13: KB001 parental mouse Fab VH variant N100Q (Fab, V domains shown)
# VH: EVQLKQSGPGLVAPSQSLSITCTVSGFSLSIYSVHWVRQPPGKGLEWLGMIWGGGSSDYNSALKSRLSISKDNSKSQVFLKMNSLQTDDTAMYYCARNGQFYAMDYWGQGTSVTVSS
# VL: QIVLTQSPAIMSASLGERVTMTCTASSSVSSSFLHWYQQKPGSSPQLWIYSTSNLASGVPARFSGSGSGTSYSLTISSMEAEDAATYYCHQYHHSPYIYTFGGGTKLEIK
# B14: KB001 parental mouse Fab VH variant N100Y (Fab, V domains shown)
# VH: EVQLKQSGPGLVAPSQSLSITCTVSGFSLSIYSVHWVRQPPGKGLEWLGMIWGGGSSDYNSALKSRLSISKDNSKSQVFLKMNSLQTDDTAMYYCARNGYFYAMDYWGQGTSVTVSS
# VL: QIVLTQSPAIMSASLGERVTMTCTASSSVSSSFLHWYQQKPGSSPQLWIYSTSNLASGVPARFSGSGSGTSYSLTISSMEAEDAATYYCHQYHHSPYIYTFGGGTKLEIK
# B15: KB001 parental mouse Fab VH variant F101S (Fab, V domains shown)
# VH: EVQLKQSGPGLVAPSQSLSITCTVSGFSLSIYSVHWVRQPPGKGLEWLGMIWGGGSSDYNSALKSRLSISKDNSKSQVFLKMNSLQTDDTAMYYCARNGNSYAMDYWGQGTSVTVSS
# VL: QIVLTQSPAIMSASLGERVTMTCTASSSVSSSFLHWYQQKPGSSPQLWIYSTSNLASGVPARFSGSGSGTSYSLTISSMEAEDAATYYCHQYHHSPYIYTFGGGTKLEIK
# B16: KB001 parental mouse Fab VH variant F101W (Fab, V domains shown)
# VH: EVQLKQSGPGLVAPSQSLSITCTVSGFSLSIYSVHWVRQPPGKGLEWLGMIWGGGSSDYNSALKSRLSISKDNSKSQVFLKMNSLQTDDTAMYYCARNGNWYAMDYWGQGTSVTVSS
# VL: QIVLTQSPAIMSASLGERVTMTCTASSSVSSSFLHWYQQKPGSSPQLWIYSTSNLASGVPARFSGSGSGTSYSLTISSMEAEDAATYYCHQYHHSPYIYTFGGGTKLEIK
# B17: KB001 parental mouse Fab VH variant F101M (Fab, V domains shown)
# VH: EVQLKQSGPGLVAPSQSLSITCTVSGFSLSIYSVHWVRQPPGKGLEWLGMIWGGGSSDYNSALKSRLSISKDNSKSQVFLKMNSLQTDDTAMYYCARNGNMYAMDYWGQGTSVTVSS
# VL: QIVLTQSPAIMSASLGERVTMTCTASSSVSSSFLHWYQQKPGSSPQLWIYSTSNLASGVPARFSGSGSGTSYSLTISSMEAEDAATYYCHQYHHSPYIYTFGGGTKLEIK
# B18: KB001 parental mouse Fab VH variant F101L (Fab, V domains shown)
# VH: EVQLKQSGPGLVAPSQSLSITCTVSGFSLSIYSVHWVRQPPGKGLEWLGMIWGGGSSDYNSALKSRLSISKDNSKSQVFLKMNSLQTDDTAMYYCARNGNLYAMDYWGQGTSVTVSS
# VL: QIVLTQSPAIMSASLGERVTMTCTASSSVSSSFLHWYQQKPGSSPQLWIYSTSNLASGVPARFSGSGSGTSYSLTISSMEAEDAATYYCHQYHHSPYIYTFGGGTKLEIK
# B19: KB001 parental mouse Fab VH variant A103G (Fab, V domains shown)
# VH: EVQLKQSGPGLVAPSQSLSITCTVSGFSLSIYSVHWVRQPPGKGLEWLGMIWGGGSSDYNSALKSRLSISKDNSKSQVFLKMNSLQTDDTAMYYCARNGNFYGMDYWGQGTSVTVSS
# VL: QIVLTQSPAIMSASLGERVTMTCTASSSVSSSFLHWYQQKPGSSPQLWIYSTSNLASGVPARFSGSGSGTSYSLTISSMEAEDAATYYCHQYHHSPYIYTFGGGTKLEIK
# B20: KB001 parental mouse Fab VH variant A103V (Fab, V domains shown)
# VH: EVQLKQSGPGLVAPSQSLSITCTVSGFSLSIYSVHWVRQPPGKGLEWLGMIWGGGSSDYNSALKSRLSISKDNSKSQVFLKMNSLQTDDTAMYYCARNGNFYVMDYWGQGTSVTVSS
# VL: QIVLTQSPAIMSASLGERVTMTCTASSSVSSSFLHWYQQKPGSSPQLWIYSTSNLASGVPARFSGSGSGTSYSLTISSMEAEDAATYYCHQYHHSPYIYTFGGGTKLEIK
# Biological target: HRgpA-6H (Porphyromonas gingivalis) (UniProt P28784)
# UniProt P28784, sequence (P28784 228-991 limits assumed): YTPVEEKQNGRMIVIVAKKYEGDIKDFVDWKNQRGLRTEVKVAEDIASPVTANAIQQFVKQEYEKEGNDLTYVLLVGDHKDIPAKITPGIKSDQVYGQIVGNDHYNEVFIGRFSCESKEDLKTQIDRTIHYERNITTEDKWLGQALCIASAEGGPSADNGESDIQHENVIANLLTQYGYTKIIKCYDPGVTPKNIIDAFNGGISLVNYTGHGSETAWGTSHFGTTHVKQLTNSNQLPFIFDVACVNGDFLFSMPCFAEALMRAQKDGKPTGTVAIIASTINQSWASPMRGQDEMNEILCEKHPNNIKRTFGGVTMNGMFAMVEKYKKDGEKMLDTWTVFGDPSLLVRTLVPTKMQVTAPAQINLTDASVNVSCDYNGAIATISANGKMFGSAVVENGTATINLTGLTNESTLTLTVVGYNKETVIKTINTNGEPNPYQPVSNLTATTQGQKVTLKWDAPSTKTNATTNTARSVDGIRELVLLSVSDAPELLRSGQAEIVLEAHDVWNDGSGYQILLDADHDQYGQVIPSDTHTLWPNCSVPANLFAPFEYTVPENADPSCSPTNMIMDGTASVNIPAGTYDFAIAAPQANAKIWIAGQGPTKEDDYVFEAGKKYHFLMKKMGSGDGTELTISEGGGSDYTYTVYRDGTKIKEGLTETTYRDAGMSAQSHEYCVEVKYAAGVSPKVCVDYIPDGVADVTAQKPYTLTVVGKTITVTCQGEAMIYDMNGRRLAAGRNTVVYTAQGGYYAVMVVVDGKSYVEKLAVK
# Test: ELISA, Fab FASEBA supernatant on coated HRgpA-6H (0.0625 ug/ml)
Binder,OD450nm,Ratio OD(Variant)/OD(WT)
B1,0.757,0.894
B2,0.796 and 0.833,0.94 and 0.983
B3,0.799 and 0.844 and 0.805,0.943 and 0.996 and 0.95
B4,0.817 and 0.736 and 0.789,0.965 and 0.869 and 0.932
B5,0.809,0.955
B6,0.779,0.92
B7,0.688,0.812
B8,0.769 and 0.814,0.908 and 0.961
B9,0.823,0.972
B10,0.756 and 0.783,0.893 and 0.924
B11,0.801 and 0.791,0.946 and 0.934
B12,0.788,0.93
B13,0.846,0.999
B14,0.757 and 0.784 and 0.699,0.894 and 0.926 and 0.825
B15,0.678 and 0.725,0.8 and 0.856
B16,0.825 and 0.828 and 0.802,0.974 and 0.978 and 0.947
B17,0.755,0.891
B18,0.681,0.804
B19,0.815 and 0.804 and 0.755,0.945 and 0.933 and 0.876
B20,0.849 and 0.807,0.985 and 0.936
